Test results from patent EP4663661A1 (Hainan Simcere Zaiming Pharmaceutical Co., Ltd., dated 2025).
Changes are numbered by the printed parent chain. Read-outs that look alike come from different tables or passages of the source.

T1: his-tagged human CDH6 extracellular region protein (hCDH6 ECD-his) (human, UniProt P55285 54-615)
T1 construct: also called hCDH6-his; Human CDH6-his; not shown: his tag
T1 sequence: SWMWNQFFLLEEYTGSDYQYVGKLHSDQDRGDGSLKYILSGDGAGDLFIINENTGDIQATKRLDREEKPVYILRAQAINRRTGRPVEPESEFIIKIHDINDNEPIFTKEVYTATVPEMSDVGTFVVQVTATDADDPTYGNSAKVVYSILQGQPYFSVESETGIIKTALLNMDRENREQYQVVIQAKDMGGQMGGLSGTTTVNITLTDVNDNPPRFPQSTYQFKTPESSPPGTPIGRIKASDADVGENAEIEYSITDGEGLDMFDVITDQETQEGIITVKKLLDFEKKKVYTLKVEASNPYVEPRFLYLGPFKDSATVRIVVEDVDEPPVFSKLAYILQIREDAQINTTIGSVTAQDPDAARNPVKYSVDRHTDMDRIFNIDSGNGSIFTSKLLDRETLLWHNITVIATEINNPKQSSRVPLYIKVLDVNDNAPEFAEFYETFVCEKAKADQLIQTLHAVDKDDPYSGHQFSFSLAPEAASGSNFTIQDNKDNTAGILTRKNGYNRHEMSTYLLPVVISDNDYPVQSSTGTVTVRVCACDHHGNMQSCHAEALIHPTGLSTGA

B1: CHI-CDH6-5 (antibody, human IgG1, kappa, V domains shown)
VH: QVQLQQSGAELVRPGTSVKMSCKAAEYTFTNYWIGWVKQRPGHGLEWIGDLYPGGDHANYNEKFEGKATLTADTSSSTAYMQLSSLTSEDSAIYYCARGMLTTGFDSWGQGTTLTVSS
VL: DIVMSQSPSSLAVSAGEKVTMSCKSSQSLFNSRTRKNYLAWYQQKPGQSPKLLIYWASTRESGVPDRFTGSGSGTDFTLTISSVQAEDLAVYYCKQSYYLRTFGGGTKLEIKR
B2: CHI-CDH6-9 (antibody, human IgG1, kappa, V domains shown)
VH: QVQLQQPGAELVKPGASVKLSCKASGYTFTGYWMHWVRQRPGQGLEWIGEINPNNGGTNCNEQFKNKATLTVDKSSSTAYMQLSSLTSEDSAVFYCTISFGNYLFFDVWGAGTTVTVSS
VL: DIQMTQSPASLAASVGETITITCQASENIYFSLAWYQQKQGKSPQLLIYNANTLEDGVPSRFVGSGSGTQYSMKINSIQPEDTATYFCDQTYDFPWTFGGGTKLEIKR
B3: CHI-CDH6-4 (antibody, human IgG1, kappa, V domains shown)
VH: QVQLQQSGPELVKPGASVKISCKASGYAFSNFWMNWVKQRPGKGLEWIGWIYPGDGDTNYNGKFKDKATLTADKSSSTAYIQLSSLTSEDSAVYFCARLYDAWGFFDYWGQGTTLTVSS
VL: QIVLTQSPAIMSASPGQKVTITCSASSSVNYMHWYQQKLGSSPKLWIYDKSKLAPGVPARFSGSGSGTSYSLTISSMEAEDAASYFCHQWSSYPPMTFGGGTKLEIKR
B4: CHI-CDH6-14 (antibody, human IgG1, kappa, V domains shown)
VH: QIQLQQSGPELVKPGTSVKISCKASGYTFTDNYINWVRQRPGQGLEWIGWIYPGTGNSYYNEKFKGKATLTVDTSSSTAYMQFSSLTSEDSAVYLCASSYGDSFDYWGQGTTLTVSS
VL: DIQMTQTTSSLSASLGNRVTISCRASQDIRNYLNWYQQKPDGTFKLLISYTSRLHSGVPSRFSGSGSGTDYSLTVSNLEPEDIATYYCQQYSQLPWTFGGGSRLEIKR
notes: also called CHI- hCDH6-14
B5: DS-H01L02 (antibody, human IgG1, kappa, V domains shown)
VH: EVQLVQSGAEVKKPGASVKVSCKASGYTFTRNFMHWVRQAPGQGLEWMGWIYPGDGETEYAQKFQGRVTITADTSTSTAYMELSSLRSEDTAVYYCARGVYGGFAGGYFDFWGQGTLVTVSS
VL: DIQMTQSPSSLSASVGDRVTITCKASQNIYKNLAWYQQKPGKAPKLLIYDANTLQTGVPSRFSGSGSGSDFTLTISSLQPEDFATYFCQQYYSGWAFGQGTKVEIKR
B6: CHI-CDH6-6 (antibody, human IgG1, kappa, V domains shown)
VH: EVQLQQSGPELVKPGDSVKMSCKASGYTFTDYYMAWVRQSHRKSLEWIGYIFPNSGGTDYSQKFKGKATLTVDKSSSTVYMELHSLTSEDSAVYYCARELGADYGDYYAMDHWGQGTSVSVSS
VL: DIQMTQSPASLSASVGETVTITCRASENIDSYLAWYQQKQGKSPQLLVYSATLLADGVPSRFSGSGSGTQYSLKINSLKSEDVARYYCQHYYRTPPTFGSGTKLEIKR
B7: CHI-CDH6-8 (antibody, human IgG1, kappa, V domains shown)
VH: EVQLQQSGPELVKPGDSVKMSCKASGYTFTDYYMAWIKQNHGKSLEWIGYIYPNNGGTDYNQKFRGKATLTVDKSSSAAYMELHSLTSEDSAVYYCAREIGTLYGDYYAMDYWGQGTSVTVSS
VL: B6 VL with S50T, K79Q, R93S
B8: CHI-CDH6-7 (antibody, human IgG1, kappa, V domains shown)
VH: EVKLVESGGGLVKPGGSLKVSCAASGFTFSDHGMAWVRQAPGKGPEWVAFISNLAYSIYYADTVTGRFTISRENAKNTLYLEMSSLRSEDTAMYYCARVYVKWYFDVWGAGTTVTVSS
VL: B6 VL with Y49F, S50A, K79Q, R93S, P96L, S100A, I106L
B9: NOV0712 (antibody, human IgG1, kappa, V domains shown)
VH: QVQLLESGGGLVQPGGSLRLSCAASGFTFSSHGMHWVRQAPGKGLEWVSVISGSGSNTGYADSVKGRFTISRDNSKNTLYLQMNSLRAEDTAVYYCARQWGSYAFDSWGQGTLVTVSS
VL: DIQMTQSPSSLSASVGDRVTITCRASQSISSYLNWYQQKPGKAPKLLIYAVSTLQSGVPSRFSGSGSGTDFTLTISSLQPEDFATYYCQQSGTFPPTTFGQGTKVEIKR
B10: CHI-CDH6-11 (antibody, human IgG1, kappa, V domains shown)
VH: QIQLQQSGPELVKPGASVRISCKASGYTFTDYYITWVKLRPGQGLEWIGWIYPGSVNIKYNEKFKGKATLTVDTSSSTAYMQLNSLTSEDSAVYFCARGGYSWFPYWGQGTLVTVSA
VL: NIVMTQSPKSMSMSVGERVTLSCKASENVHTYVSWYQQKPEQSPKLLFYGASTRNTGVPDRFTGSGSATDFTLTISSVQAEDLADYYCGQSYSYPYTFGSGTKLEIKR
B11: CHI-CDH6-3 (antibody, human IgG1, kappa, V domains shown)
VH: QVQLQQPGAELVKPGASVKLSCKASGYTFTSYWIHWVKQRPGQGLEWIGEINPSNGVTNCNENFKSKATLTVDKSSSTAYMQLSSLTSEDSAVYYCTIPNLLWWYFDVWGAGTTVTVSS
VL: DIQMTQSPASLSVSVGETVTITCRASENIYSNLAWYQQKQGKSPQLLVYEATNLADGVPSRFSGSGSGTQYSLKINSLQSEDFGSYYCQHFWGTLWTFGGGTKLEIKR
B12: hCDH6-1-H1L1 (antibody, human IgG1, kappa, V domains shown)
VH: EVQLVQSGAEVKKPGSSVKVSCKASGYTFSNYWMHWVRQAPGQGLEWMGDIDPSHSETHYTQKFKDRVTITVDKSTSTAYMELSSLRSEDTAVYYCARGDLGRFDYWGQGTTVTVSS
VL: DIVMTQSPDSLAVSLGERATINCRASESVSIHGTHLMHWYQQKPGQPPKLLIYAASNLESGVPDRFSGSGSETDFTLTISSLQAEDVAVYYCQQSFEDPWTFGGGTKVEIKR
B13: CHI-CDH6-2 (antibody, human IgG1, kappa, V domains shown)
VH: EVQLQQSGPELVKPGASVRISCKASGYTFTDYYMNWVKQSHGKSLEWIGDIDPNNANTTYNQKFKGKATLTVDKSSSTAYMELRSLTSEDSAVYSCASFGYDVEWFGYWGQGTLVTVSA
VL: QIVLTQSPALMSASPGEKVTMTCSASSSVSYMYWYQQKPRSSPKPWIYLTSNLASGVPARFSGSGSGTSYSLTISSMEAEDAATYYCQQWSSNPFTFGSGTKLEIKR
B14: CHI-CDH6-13 (antibody, human IgG1, kappa, V domains shown)
VH: DVQLQESGPGLVKPSQSLSLTCSVTGYSITKDSYWNWIRQFPGSKLEWMGFISYDGSRHYNPSLKNRISITRDTSKNQFFLQLNSVTTEDTATYYCARRDYADYWGQGTTLTVSS
VL: B13 VL with S14F, S26T, M32I, S75N, M77L, N93I, F95Y, S99G

Tests used:
[1] = molecular target: human CDH6 protein, full length, on cells (OVCAR3, PA-1) (human) (UniProt P55285); test: FACS, PA-1 cells
[2] = molecular target: human CDH6 protein, full length, on cells (OVCAR3, PA-1) (human) (UniProt P55285); test: FACS, OVCAR3 cells
[3] = molecular target: his-tagged human CDH6 extracellular region protein (hCDH6 ECD-his) (human) (UniProt P55285); test: ELISA, antigen coated
[4] = molecular target: monkey CDH6 protein (cynoCDH6 ECD-his) (monkey (cyno)); test: ELISA, antigen coated
[5] = molecular target: murine CDH6 protein (mCDH6 ECD-his) (mouse) (UniProt P97326); test: ELISA, antigen coated
[6] = molecular target: human CDH6 with EC1 removed, on HEK293T cells (HEK293T-hCDH6-EC1 deletion) (human) (UniProt P55285); test: FACS, HEK293T-hCDH6-EC1 deletion cells
[7] = molecular target: human CDH6 with EC2 removed, on HEK293T cells (HEK293T-hCDH6-EC2 deletion) (human) (UniProt P55285); test: FACS, HEK293T-hCDH6-EC2 deletion cells
[8] = molecular target: human CDH6 with EC3 removed, on HEK293T cells (HEK293T-hCDH6-EC3 deletion) (human) (UniProt P55285); test: FACS, HEK293T-hCDH6-EC3 deletion cells
[9] = molecular target: human CDH6 with EC4 removed, on HEK293T cells (HEK293T-hCDH6-EC4 deletion) (human) (UniProt P55285); test: FACS, HEK293T-hCDH6-EC4 deletion cells
[10] = molecular target: human CDH6 with EC5 removed, on HEK293T cells (HEK293T-hCDH6-EC5 deletion) (human) (UniProt P55285); test: FACS, HEK293T-hCDH6-EC5 deletion cells
[11] = molecular target: T1, his-tagged human CDH6 extracellular …; test: ELISA, antigen coated
[12] = molecular target: T1, his-tagged human CDH6 extracellular …; test: ELISA, antigen coated; remark: listed apart in the source
[13] = molecular target: T1, his-tagged human CDH6 extracellular …; test: SPR Biacore, antibody captured on Protein A chip

| Molecule | Max OD450 [5] [OD450] | EC50 [5] [nM] | Max MFI [6] [MFI] | Max MFI [7] [MFI] | Max MFI [8] [MFI] | Max MFI [9] [MFI] | Max MFI [10] [MFI] | other results |
| --- | --- | --- | --- | --- | --- | --- | --- | --- |
| hIgG1 (antibody) | 0.1 |  |  |  |  |  |  | Max MFI [1]: 64 MFI; Max MFI [2]: 63 MFI; Max OD450 [3]: 0.07 OD450; Max OD450 [4]: 0.06 OD450 |
| B1 | 1.92 | 0.046 | 112 | 343 | 12200 | 18700 | 4240 |  |
| B2 | 2.77 | 0.022 |  |  |  |  |  |  |
| B3 | 2.32 | 0.035 | 10200 | 75 | 15100 | 22200 | 6540 |  |
| B4 | 2.48 | 0.049 | 7210 | 814 | 755 | 26600 | 4040 | Max OD450 [11]: 2.5 OD450; Max OD450 [12]: 2.65 OD450 |
| B5 | 0.6 |  | 5290 | 8390 |  | 11800 | 1530 |  |
| B6 | 1.6 | 0.025 |  |  |  |  |  |  |
| B7 | 1.82 | 0.028 |  |  |  |  |  |  |
| B8 | 2.12 | 0.058 | 88 | 13000 | 9060 | 17400 | 1020 |  |
| B9 | 2.42 | 0.039 | 23600 | 39100 | 16300 | 20600 |  |  |
| B10 | 1.77 | 0.04 |  |  |  |  |  |  |
| B11 | 2.38 | 0.051 | 11100 | 7550 | 689 | 16800 | 5610 |  |
| B12 |  |  |  |  |  |  |  | kon [13]: 2100 M⁻¹ s⁻¹ |
| B13 | 1.62 | 0.023 |  |  |  |  |  |  |
| B14 | 2.76 | 0.016 |  |  |  |  |  |  |
